For 19 molecules, intracellular Ca ion level-increasing activity [specific activity to Metastin (1-54)] (relative to Metastin (1-54)) results are on record in patent publication US20090105152A1.

This experiment concerns the target human OT7T175 (metastin receptor) (human) (UniProt Q969F8). The experiment in a line: cell-based or functional assay.

Square brackets hold non-standard residues; d marks the D form. * marks the point of attachment. Phe(4-Cl) = N[C@@H](Cc1ccc(Cl)cc1)C(=O)O; Phe(3-F) = N[C@@H](Cc1cccc(F)c1)C(=O)O; Izc = imidazolidine-2-carboxylic acid; Phe(2-F) = N[C@@H](Cc1ccccc1F)C(=O)O; Arg(Me) = CNC(=N)NCCC[C@H](N)C(=O)O; Decanoyl = CCCCCCCCCC(=O)*; dDap = NC[C@@H](N)C(=O)O; dNMeA = CN[C@H](C)C(=O)O; Dab = NCC[C@H](N)C(=O)O; azaGly = NNC(=O)O; βAla = NCCC(=O)O

Chain of human OT7T175 (metastin receptor) (human) (Q969F8 whole entry L364H): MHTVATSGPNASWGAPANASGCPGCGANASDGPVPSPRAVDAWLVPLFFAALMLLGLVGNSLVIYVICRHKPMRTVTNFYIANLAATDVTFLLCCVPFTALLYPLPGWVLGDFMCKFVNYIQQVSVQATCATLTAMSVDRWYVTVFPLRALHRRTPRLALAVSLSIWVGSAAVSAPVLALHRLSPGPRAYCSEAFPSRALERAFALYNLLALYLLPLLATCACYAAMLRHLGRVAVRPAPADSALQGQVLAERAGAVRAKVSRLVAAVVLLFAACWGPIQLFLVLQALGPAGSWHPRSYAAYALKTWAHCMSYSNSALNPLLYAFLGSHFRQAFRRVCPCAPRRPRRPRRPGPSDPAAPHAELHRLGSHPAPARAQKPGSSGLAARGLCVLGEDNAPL

B1: des(1)-Ac-[D-Tyr2,Ala3,Thr5,AzaGly7,Arg(Me)9,Trp10]MS10 (peptide)
peptide: Ac-[dY]ANTF[azaGly]L[Arg(Me)]W-NH2
SMILES: CNC(=N)NCCC[C@H](NC(=O)[C@H](CC(C)C)NC(=O)NNC(=O)[C@H](Cc1ccccc1)NC(=O)[C@@H](NC(=O)[C@H](CC(N)=O)NC(=O)[C@H](C)NC(=O)[C@@H](Cc1ccc(O)cc1)NC(C)=O)[C@@H](C)O)C(=O)N[C@@H](Cc1c[nH]c2ccccc12)C(N)=O
B1: the intracellular Ca ion level-increasing activity [specific activity to Metastin (1-54)] (relative to Metastin (1-54)) is 2.3.

B2: des(1)-Ac-[D-Tyr2,D-Trp3,Thr5,Phe(2F)6,AzaGly7,Arg(Me)9,Trp10]MS10 (peptide)
peptide: Ac-[dY][dW]NT[Phe(2-F)][azaGly]L[Arg(Me)]W-NH2
SMILES: CNC(=N)NCCC[C@H](NC(=O)[C@H](CC(C)C)NC(=O)NNC(=O)[C@H](Cc1ccccc1F)NC(=O)[C@@H](NC(=O)[C@H](CC(N)=O)NC(=O)[C@@H](Cc1c[nH]c2ccccc12)NC(=O)[C@@H](Cc1ccc(O)cc1)NC(C)=O)[C@@H](C)O)C(=O)N[C@@H](Cc1c[nH]c2ccccc12)C(N)=O
B2 had an intracellular Ca ion level-increasing activity [specific activity to Metastin (1-54)] (relative to Metastin (1-54)) of 0.5.

B3: des(1)-Ac-[D-Tyr2,Leu3,Thr5,AzaGly7,Arg(Me)9,Trp10]MS10 (peptide)
peptide: Ac-[dY]LNTF[azaGly]L[Arg(Me)]W-NH2
SMILES: CNC(=N)NCCC[C@H](NC(=O)[C@H](CC(C)C)NC(=O)NNC(=O)[C@H](Cc1ccccc1)NC(=O)[C@@H](NC(=O)[C@H](CC(N)=O)NC(=O)[C@H](CC(C)C)NC(=O)[C@@H](Cc1ccc(O)cc1)NC(C)=O)[C@@H](C)O)C(=O)N[C@@H](Cc1c[nH]c2ccccc12)C(N)=O
In turn, B3 displayed an intracellular Ca ion level-increasing activity [specific activity to Metastin (1-54)] (relative to Metastin (1-54)) of 3.4.

B4: des(1)-Ac-[D-Tyr2,D-Trp3,Thr5,Phe(3F)6,AzaGly7,Arg(Me)9,Trp10]MS10 (peptide)
peptide: Ac-[dY][dW]NT[Phe(3-F)][azaGly]L[Arg(Me)]W-NH2
SMILES: CNC(=N)NCCC[C@H](NC(=O)[C@H](CC(C)C)NC(=O)NNC(=O)[C@H](Cc1cccc(F)c1)NC(=O)[C@@H](NC(=O)[C@H](CC(N)=O)NC(=O)[C@@H](Cc1c[nH]c2ccccc12)NC(=O)[C@@H](Cc1ccc(O)cc1)NC(C)=O)[C@@H](C)O)C(=O)N[C@@H](Cc1c[nH]c2ccccc12)C(N)=O
In the case of B4, the intracellular Ca ion level-increasing activity [specific activity to Metastin (1-54)] (relative to Metastin (1-54)) is 1.

B5: des(1)-Ac-[D-Tyr2,D-Trp3,Dab4,Thr5,AzaGly7,Arg(Me)9,Trp10]MS10 (peptide)
peptide: Ac-[dY][dW][Dab]TF[azaGly]L[Arg(Me)]W-NH2
SMILES: CNC(=N)NCCC[C@H](NC(=O)[C@H](CC(C)C)NC(=O)NNC(=O)[C@H](Cc1ccccc1)NC(=O)[C@@H](NC(=O)[C@H](CCN)NC(=O)[C@@H](Cc1c[nH]c2ccccc12)NC(=O)[C@@H](Cc1ccc(O)cc1)NC(C)=O)[C@@H](C)O)C(=O)N[C@@H](Cc1c[nH]c2ccccc12)C(N)=O
B5 showed an intracellular Ca ion level-increasing activity [specific activity to Metastin (1-54)] (relative to Metastin (1-54)) of 1.1.

B6: des(1)-Ac-[D-Tyr2,D-Asp3,Thr5,AzaGly7,Arg(Me)9,Trp10]MS10 (peptide)
peptide: Ac-[dY][dD]NTF[azaGly]L[Arg(Me)]W-NH2
SMILES: CNC(=N)NCCC[C@H](NC(=O)[C@H](CC(C)C)NC(=O)NNC(=O)[C@H](Cc1ccccc1)NC(=O)[C@@H](NC(=O)[C@H](CC(N)=O)NC(=O)[C@@H](CC(=O)O)NC(=O)[C@@H](Cc1ccc(O)cc1)NC(C)=O)[C@@H](C)O)C(=O)N[C@@H](Cc1c[nH]c2ccccc12)C(N)=O
As for B6, the intracellular Ca ion level-increasing activity [specific activity to Metastin (1-54)] (relative to Metastin (1-54)) worked out at 3.4.

B7: des(1)-Ac-[D-Tyr2,Lys3,Thr5,AzaGly7,Arg(Me)9,Trp10]MS10 (peptide)
peptide: Ac-[dY]KNTF[azaGly]L[Arg(Me)]W-NH2
SMILES: CNC(=N)NCCC[C@H](NC(=O)[C@H](CC(C)C)NC(=O)NNC(=O)[C@H](Cc1ccccc1)NC(=O)[C@@H](NC(=O)[C@H](CC(N)=O)NC(=O)[C@H](CCCCN)NC(=O)[C@@H](Cc1ccc(O)cc1)NC(C)=O)[C@@H](C)O)C(=O)N[C@@H](Cc1c[nH]c2ccccc12)C(N)=O
Regarding B7, the intracellular Ca ion level-increasing activity [specific activity to Metastin (1-54)] (relative to Metastin (1-54)) stood at 3.

B8: des(1)-Ac-[D-Tyr2,Glu3,Thr5,AzaGly7,Arg(Me)9,Trp10]MS10 (peptide)
peptide: Ac-[dY]ENTF[azaGly]L[Arg(Me)]W-NH2
SMILES: CNC(=N)NCCC[C@H](NC(=O)[C@H](CC(C)C)NC(=O)NNC(=O)[C@H](Cc1ccccc1)NC(=O)[C@@H](NC(=O)[C@H](CC(N)=O)NC(=O)[C@H](CCC(=O)O)NC(=O)[C@@H](Cc1ccc(O)cc1)NC(C)=O)[C@@H](C)O)C(=O)N[C@@H](Cc1c[nH]c2ccccc12)C(N)=O
The molecule B8 displayed an intracellular Ca ion level-increasing activity [specific activity to Metastin (1-54)] (relative to Metastin (1-54)) of 2.2.

B9: des(1)-Ac-[D-Tyr2,Izc3,Thr5,AzaGly7,Arg(Me)9,Trp10]MS10 (peptide)
peptide: Ac-[dY][Izc]NTF[azaGly]L[Arg(Me)]W-NH2
The molecule B9 displayed an intracellular Ca ion level-increasing activity [specific activity to Metastin (1-54)] (relative to Metastin (1-54)) of 2.3.

B10: des(1)-Ac-[D-Tyr2,D-Ser3,Thr5,AzaGly7,Arg(Me)9,Trp10]MS10 (peptide)
peptide: Ac-[dY][dS]NTF[azaGly]L[Arg(Me)]W-NH2
SMILES: CNC(=N)NCCC[C@H](NC(=O)[C@H](CC(C)C)NC(=O)NNC(=O)[C@H](Cc1ccccc1)NC(=O)[C@@H](NC(=O)[C@H](CC(N)=O)NC(=O)[C@@H](CO)NC(=O)[C@@H](Cc1ccc(O)cc1)NC(C)=O)[C@@H](C)O)C(=O)N[C@@H](Cc1c[nH]c2ccccc12)C(N)=O
Consider B10, for which the intracellular Ca ion level-increasing activity [specific activity to Metastin (1-54)] (relative to Metastin (1-54)) turned out to be 3.

B11: des(1)-Ac-[D-Tyr2,D-NMeAla3,Thr5,AzaGly7,Arg(Me)9,Trp10]MS10 (peptide)
peptide: Ac-[dY][dNMeA]NTF[azaGly]L[Arg(Me)]W-NH2
SMILES: CNC(=N)NCCC[C@H](NC(=O)[C@H](CC(C)C)NC(=O)NNC(=O)[C@H](Cc1ccccc1)NC(=O)[C@@H](NC(=O)[C@H](CC(N)=O)NC(=O)[C@@H](C)N(C)C(=O)[C@@H](Cc1ccc(O)cc1)NC(C)=O)[C@@H](C)O)C(=O)N[C@@H](Cc1c[nH]c2ccccc12)C(N)=O
Turning to B11, the intracellular Ca ion level-increasing activity [specific activity to Metastin (1-54)] (relative to Metastin (1-54)) worked out at 3.2.

B12: des(1)-Ac-[D-Tyr2,D-Trp3,Thr5,Phe(4Cl)6,AzaGly7,Arg(Me)9,Trp10]MS10 (peptide)
peptide: Ac-[dY][dW]NT[Phe(4-Cl)][azaGly]L[Arg(Me)]W-NH2
SMILES: CNC(=N)NCCC[C@H](NC(=O)[C@H](CC(C)C)NC(=O)NNC(=O)[C@H](Cc1ccc(Cl)cc1)NC(=O)[C@@H](NC(=O)[C@H](CC(N)=O)NC(=O)[C@@H](Cc1c[nH]c2ccccc12)NC(=O)[C@@H](Cc1ccc(O)cc1)NC(C)=O)[C@@H](C)O)C(=O)N[C@@H](Cc1c[nH]c2ccccc12)C(N)=O
B12 gave an intracellular Ca ion level-increasing activity [specific activity to Metastin (1-54)] (relative to Metastin (1-54)) of 0.4.

B13: des(1)-Ac-[D-Tyr2,β-Ala3,Thr5,AzaGly7,Arg(Me)9,Trp10]MS10 (peptide)
peptide: Ac-[dY][βAla]NTF[azaGly]L[Arg(Me)]W-NH2
SMILES: CNC(=N)NCCC[C@H](NC(=O)[C@H](CC(C)C)NC(=O)NNC(=O)[C@H](Cc1ccccc1)NC(=O)[C@@H](NC(=O)[C@H](CC(N)=O)NC(=O)CCNC(=O)[C@@H](Cc1ccc(O)cc1)NC(C)=O)[C@@H](C)O)C(=O)N[C@@H](Cc1c[nH]c2ccccc12)C(N)=O
The molecule B13 showed an intracellular Ca ion level-increasing activity [specific activity to Metastin (1-54)] (relative to Metastin (1-54)) of 2.6.

B14: des(1)-Ac-[D-Tyr2,Ser3,Thr5,AzaGly7,Arg(Me)9,Trp10]MS10 (peptide)
peptide: Ac-[dY]SNTF[azaGly]L[Arg(Me)]W-NH2
SMILES: CNC(=N)NCCC[C@H](NC(=O)[C@H](CC(C)C)NC(=O)NNC(=O)[C@H](Cc1ccccc1)NC(=O)[C@@H](NC(=O)[C@H](CC(N)=O)NC(=O)[C@H](CO)NC(=O)[C@@H](Cc1ccc(O)cc1)NC(C)=O)[C@@H](C)O)C(=O)N[C@@H](Cc1c[nH]c2ccccc12)C(N)=O
The molecule B14 came in with an intracellular Ca ion level-increasing activity [specific activity to Metastin (1-54)] (relative to Metastin (1-54)) of 2.4.

B15: des(1-3)-Ac-[Thr5,AzaGly7,Arg(Me)9,Trp10]MS10 (peptide)
peptide: Ac-NTF[azaGly]L[Arg(Me)]W-NH2
SMILES: CNC(=N)NCCC[C@H](NC(=O)[C@H](CC(C)C)NC(=O)NNC(=O)[C@H](Cc1ccccc1)NC(=O)[C@@H](NC(=O)[C@H](CC(N)=O)NC(C)=O)[C@@H](C)O)C(=O)N[C@@H](Cc1c[nH]c2ccccc12)C(N)=O
Take B15: the intracellular Ca ion level-increasing activity [specific activity to Metastin (1-54)] (relative to Metastin (1-54)) was 9.8.

B16: des(1)-Ac-[D-Tyr2,D-Gln3,Thr5,AzaGly7,Arg(Me)9,Trp10]MS10 (peptide)
peptide: Ac-[dY][dQ]NTF[azaGly]L[Arg(Me)]W-NH2
SMILES: CNC(=N)NCCC[C@H](NC(=O)[C@H](CC(C)C)NC(=O)NNC(=O)[C@H](Cc1ccccc1)NC(=O)[C@@H](NC(=O)[C@H](CC(N)=O)NC(=O)[C@@H](CCC(N)=O)NC(=O)[C@@H](Cc1ccc(O)cc1)NC(C)=O)[C@@H](C)O)C(=O)N[C@@H](Cc1c[nH]c2ccccc12)C(N)=O
Turning to B16, the intracellular Ca ion level-increasing activity [specific activity to Metastin (1-54)] (relative to Metastin (1-54)) came to 1.4.

B17: des(1)-Ac-[D-Tyr2,D-Dap3,Thr5,AzaGly7,Arg(Me)9,Trp10]MS10 (peptide)
peptide: Ac-[dY][dDap]NTF[azaGly]L[Arg(Me)]W-NH2
SMILES: CNC(=N)NCCC[C@H](NC(=O)[C@H](CC(C)C)NC(=O)NNC(=O)[C@H](Cc1ccccc1)NC(=O)[C@@H](NC(=O)[C@H](CC(N)=O)NC(=O)[C@@H](CN)NC(=O)[C@@H](Cc1ccc(O)cc1)NC(C)=O)[C@@H](C)O)C(=O)N[C@@H](Cc1c[nH]c2ccccc12)C(N)=O
B17 gave an intracellular Ca ion level-increasing activity [specific activity to Metastin (1-54)] (relative to Metastin (1-54)) of 2.4.

B18: des(1)-Ac-[D-Tyr2,D-His3,Thr5,AzaGly7,Arg(Me)9,Trp10]MS10 (peptide)
peptide: Ac-[dY][dH]NTF[azaGly]L[Arg(Me)]W-NH2
SMILES: CNC(=N)NCCC[C@H](NC(=O)[C@H](CC(C)C)NC(=O)NNC(=O)[C@H](Cc1ccccc1)NC(=O)[C@@H](NC(=O)[C@H](CC(N)=O)NC(=O)[C@@H](Cc1c[nH]cn1)NC(=O)[C@@H](Cc1ccc(O)cc1)NC(C)=O)[C@@H](C)O)C(=O)N[C@@H](Cc1c[nH]c2ccccc12)C(N)=O
B18 came in with an intracellular Ca ion level-increasing activity [specific activity to Metastin (1-54)] (relative to Metastin (1-54)) of 1.6.

B19: des(1-3)-Decanoyl-[Thr5,AzaGly7,Arg(Me)9,Trp10]MS10 (peptide)
peptide: Decanoyl-NTF[azaGly]L[Arg(Me)]W-NH2
SMILES: CCCCCCCCCC(=O)N[C@@H](CC(N)=O)C(=O)N[C@H](C(=O)N[C@@H](Cc1ccccc1)C(=O)NNC(=O)N[C@@H](CC(C)C)C(=O)N[C@@H](CCCNC(=N)NC)C(=O)N[C@@H](Cc1c[nH]c2ccccc12)C(N)=O)[C@@H](C)O
As for B19, the intracellular Ca ion level-increasing activity [specific activity to Metastin (1-54)] (relative to Metastin (1-54)) amounted to 7.2.
